Data from article PMC2572732, “Structural Coupling of SH2-Kinase Domains Links Fes and Abl Substrate Recognition and Kinase Activation” (Cell, 2008).

Test system: Fes; GST-cortactin (residues 382–550)
Experiment: In vivo kinase assay: Fes autophosphorylation and GST-cortactin phosphorylation in transfected HEK293T cells
Format: cell-based, human
Settings: full-length Flag-Fes, HEK293T, 24 hr, western blot anti-pTyr; in words
Description: To pursue the relevance of the observed interdomain interactions, we studied the effects of mutating residues in the SH2-kinase interface on human Fes activity. To this end, we monitored Fes autophosphorylation and transphosphorylation activity in transfected cells, using cortactin (residues 382–550) fused to GST as an exogenous substrate (Figures 2A and 2B). In an effort to perturb the close interaction between the SH2 and kinase domains, we mutated the conserved glycine residue (G463) located in the tightly packed interface between the SH2 N terminus and the kinase β4/β5 loop to valine (mutant G/V). Introducing this bulky side chain would be expected to sterically hinder alignment of the SH2 and kinase domains, resulting in an altered domain packing. Wild-type (WT) and G/V mutant full-length human Fes, each with an N-terminal Flag epitope, were expressed in HEK293T cells together with GST-cortactin.
Wild-type p130^Gag-Fps and the RX15m and AX9m mutants ([Stone et al., 1984]) were subcloned into the vector pRK5-myc ([Winberg et al., 2000]). Full-length human Fes was cloned into the vector pCMV7.1-3xFlag (Sigma, St. Louis, MO). Site-directed mutagenesis was performed using the QuickChange® II XL Kit (Stratagene, La Jolla, CA) following the manufacturer's directions. A GST-tagged C-terminal fragment of human cortactin (residues 382–550, accession Q14247) was prepared by PCR from cDNA (accession BC008799) and cloned into pEBG vector (gift from C. Duckett, University of Michigan Medical School, Ann Arbor).
HEK293T cells were maintained in Dulbecco's modified Eagle's medium supplemented with 10% (vol/vol) fetal bovine serum, 100 units/ml penicillin G sodium, and 100 μg/ml streptomycin and incubated at 37°C, 5% CO2.
Flag-tagged Fes or Myc-tagged p130^Gag-Fps and mutants thereof were cotransfected with GST-cortactin into HEK293T cells. After 24 hr, cells were lysed with NP-40 cell lysis buffer (50 mM Tris-HCl [pH 7.5], 150 mM NaCl, 1% NP-40, and 1 mM EDTA) that contained 1 mM phenylmethylsulfonyl fluoride, 10 μg/ml leupeptin, 10 μg/ml aprotinin, and 10 μg/ml pepstatin A. Cell lysates, normalized for protein concentration, were used in anti-Flag M2 antibody-agarose (Sigma) or anti-Myc antibody immunoprecipitations or glutathione sepharose affinity precipitations. Associated proteins were resolved using SDS-PAGE and analyzed by western blotting using anti-Flag M2 (Sigma), anti-c-Myc 9E10 (Santa Cruz), HRP-conjugated anti-GST (Santa Cruz), or anti-pTyr 4G10 (Upstate) antibodies.

Molecule	Fes kinase activity (autophosphorylation and cortactin phosphorylation)
EE/KK: Fes double mutant, E469 and E472 to lysine (protein) WYHGAIPRAKVAKLLVHSGDFLVRESQGKQEYVLSVLWDGLPRHFIIQSLDNLYRLEGEGFPSIPLLIDHLLSTQQPLTKKSGVVLHRAV	strongly reduced Fes kinase activity
WT: Wild-type full-length human Fes with N-terminal Flag epitope (protein, UniProt P07332 1-822, looked up, full-length N-terminal Flag tag) MGFSSELCSPQGHGVLQQMQEAELRLLEGMRKWMAQRVKSDREYAGLLHHMSLQDSGGQSRAISPDSPISQSWAEITSQTEGLSRLLRQHAEDLNSGPLSKLSLLIRERQQLRKTYSEQWQQLQQELTKTHSQDIEKLKSQYRALARDSAQAKRKYQEASKDKDRDKAKDKYVRSLWKLFAHHNRYVLGVRAAQLHHQHHHQLLLPGLLRSLQDLHEEMACILKEILQEYLEISSLVQDEVVAIHREMAAAAARIQPEAEYQGFLRQYGSAPDVPPCVTFDESLLEEGEPLEPGELQLNELTVESVQHTLTSVTDELAVATEMVFRRQEMVTQLQQELRNEEENTHPRERVQLLGKRQVLQEALQGLQVALCSQAKLQAQQELLQTKLEHLGPGEPPPVLLLQDDRHSTSSSEQEREGGRTPTLEILKSHISGIFRPKFSLPPPLQLIPEVQKPLHEQLWYHGAIPRAEVAELLVHSGDFLVRESQGKQEYVLSVLWDGLPRHFIIQSLDNLYRLEGEGFPSIPLLIDHLLSTQQPLTKKSGVVLHRAVPKDKWVLNHEDLVLGEQIGRGNFGEVFSGRLRADNTLVAVKSCRETLPPDLKAKFLQEARILKQYSHPNIVRLIGVCTQKQPIYIVMELVQGGDFLTFLRTEGARLRVKTLLQMVGDAAAGMEYLESKCCIHRDLAARNCLVTEKNVLKISDFGMSREEADGVYAASGGLRQVPVKWTAPEALNYGRYSSESDVWSFGILLWETFSLGASPYPNLSNQQTREFVEKGGRLPCPELCPDAVFRLMEQCWAYEPGQRPSFSTIYQELQSIRKRHR	active
EER/KKE: Fes triple mutant: EE/KK plus R609 in αC helix to glutamate (protein, UniProt P07332 1-822, looked up, variant E469K E472K R609E) Tyrosine-protein kinase …: MGFSSELCSPQGHGVLQQMQEAELRLLEGMRKWMAQRVKSDREYAGLLHHMSLQDSGGQSRAISPDSPISQSWAEITSQTEGLSRLLRQHAEDLNSGPLSKLSLLIRERQQLRKTYSEQWQQLQQELTKTHSQDIEKLKSQYRALARDSAQAKRKYQEASKDKDRDKAKDKYVRSLWKLFAHHNRYVLGVRAAQLHHQHHHQLLLPGLLRSLQDLHEEMACILKEILQEYLEISSLVQDEVVAIHREMAAAAARIQPEAEYQGFLRQYGSAPDVPPCVTFDESLLEEGEPLEPGELQLNELTVESVQHTLTSVTDELAVATEMVFRRQEMVTQLQQELRNEEENTHPRERVQLLGKRQVLQEALQGLQVALCSQAKLQAQQELLQTKLEHLGPGEPPPVLLLQDDRHSTSSSEQEREGGRTPTLEILKSHISGIFRPKFSLPPPLQLIPEVQKPLHEQLWYHGAIPRAKVAKLLVHSGDFLVRESQGKQEYVLSVLWDGLPRHFIIQSLDNLYRLEGEGFPSIPLLIDHLLSTQQPLTKKSGVVLHRAVPKDKWVLNHEDLVLGEQIGRGNFGEVFSGRLRADNTLVAVKSCRETLPPDLKAKFLQEAEILKQYSHPNIVRLIGVCTQKQPIYIVMELVQGGDFLTFLRTEGARLRVKTLLQMVGDAAAGMEYLESKCCIHRDLAARNCLVTEKNVLKISDFGMSREEADGVYAASGGLRQVPVKWTAPEALNYGRYSSESDVWSFGILLWETFSLGASPYPNLSNQQTREFVEKGGRLPCPELCPDAVFRLMEQCWAYEPGQRPSFSTIYQELQSIRKRHR	regained kinase activity to a level approaching wild-type
E469K: Fes E469K mutant (protein, UniProt P07332 1-822, looked up, variant E469K) Tyrosine-protein kinase …: MGFSSELCSPQGHGVLQQMQEAELRLLEGMRKWMAQRVKSDREYAGLLHHMSLQDSGGQSRAISPDSPISQSWAEITSQTEGLSRLLRQHAEDLNSGPLSKLSLLIRERQQLRKTYSEQWQQLQQELTKTHSQDIEKLKSQYRALARDSAQAKRKYQEASKDKDRDKAKDKYVRSLWKLFAHHNRYVLGVRAAQLHHQHHHQLLLPGLLRSLQDLHEEMACILKEILQEYLEISSLVQDEVVAIHREMAAAAARIQPEAEYQGFLRQYGSAPDVPPCVTFDESLLEEGEPLEPGELQLNELTVESVQHTLTSVTDELAVATEMVFRRQEMVTQLQQELRNEEENTHPRERVQLLGKRQVLQEALQGLQVALCSQAKLQAQQELLQTKLEHLGPGEPPPVLLLQDDRHSTSSSEQEREGGRTPTLEILKSHISGIFRPKFSLPPPLQLIPEVQKPLHEQLWYHGAIPRAKVAELLVHSGDFLVRESQGKQEYVLSVLWDGLPRHFIIQSLDNLYRLEGEGFPSIPLLIDHLLSTQQPLTKKSGVVLHRAVPKDKWVLNHEDLVLGEQIGRGNFGEVFSGRLRADNTLVAVKSCRETLPPDLKAKFLQEARILKQYSHPNIVRLIGVCTQKQPIYIVMELVQGGDFLTFLRTEGARLRVKTLLQMVGDAAAGMEYLESKCCIHRDLAARNCLVTEKNVLKISDFGMSREEADGVYAASGGLRQVPVKWTAPEALNYGRYSSESDVWSFGILLWETFSLGASPYPNLSNQQTREFVEKGGRLPCPELCPDAVFRLMEQCWAYEPGQRPSFSTIYQELQSIRKRHR	reduced tyrosine kinase activity
G/V: Fes mutant, conserved glycine residue (G463) mutated to valine (protein, UniProt P07332 1-822, looked up, variant G463V) Tyrosine-protein kinase …: MGFSSELCSPQGHGVLQQMQEAELRLLEGMRKWMAQRVKSDREYAGLLHHMSLQDSGGQSRAISPDSPISQSWAEITSQTEGLSRLLRQHAEDLNSGPLSKLSLLIRERQQLRKTYSEQWQQLQQELTKTHSQDIEKLKSQYRALARDSAQAKRKYQEASKDKDRDKAKDKYVRSLWKLFAHHNRYVLGVRAAQLHHQHHHQLLLPGLLRSLQDLHEEMACILKEILQEYLEISSLVQDEVVAIHREMAAAAARIQPEAEYQGFLRQYGSAPDVPPCVTFDESLLEEGEPLEPGELQLNELTVESVQHTLTSVTDELAVATEMVFRRQEMVTQLQQELRNEEENTHPRERVQLLGKRQVLQEALQGLQVALCSQAKLQAQQELLQTKLEHLGPGEPPPVLLLQDDRHSTSSSEQEREGGRTPTLEILKSHISGIFRPKFSLPPPLQLIPEVQKPLHEQLWYHVAIPRAEVAELLVHSGDFLVRESQGKQEYVLSVLWDGLPRHFIIQSLDNLYRLEGEGFPSIPLLIDHLLSTQQPLTKKSGVVLHRAVPKDKWVLNHEDLVLGEQIGRGNFGEVFSGRLRADNTLVAVKSCRETLPPDLKAKFLQEARILKQYSHPNIVRLIGVCTQKQPIYIVMELVQGGDFLTFLRTEGARLRVKTLLQMVGDAAAGMEYLESKCCIHRDLAARNCLVTEKNVLKISDFGMSREEADGVYAASGGLRQVPVKWTAPEALNYGRYSSESDVWSFGILLWETFSLGASPYPNLSNQQTREFVEKGGRLPCPELCPDAVFRLMEQCWAYEPGQRPSFSTIYQELQSIRKRHR	completely inactive
E472K: Fes E472K mutant (protein, UniProt P07332 1-822, looked up, variant E472K) Tyrosine-protein kinase …: MGFSSELCSPQGHGVLQQMQEAELRLLEGMRKWMAQRVKSDREYAGLLHHMSLQDSGGQSRAISPDSPISQSWAEITSQTEGLSRLLRQHAEDLNSGPLSKLSLLIRERQQLRKTYSEQWQQLQQELTKTHSQDIEKLKSQYRALARDSAQAKRKYQEASKDKDRDKAKDKYVRSLWKLFAHHNRYVLGVRAAQLHHQHHHQLLLPGLLRSLQDLHEEMACILKEILQEYLEISSLVQDEVVAIHREMAAAAARIQPEAEYQGFLRQYGSAPDVPPCVTFDESLLEEGEPLEPGELQLNELTVESVQHTLTSVTDELAVATEMVFRRQEMVTQLQQELRNEEENTHPRERVQLLGKRQVLQEALQGLQVALCSQAKLQAQQELLQTKLEHLGPGEPPPVLLLQDDRHSTSSSEQEREGGRTPTLEILKSHISGIFRPKFSLPPPLQLIPEVQKPLHEQLWYHGAIPRAEVAKLLVHSGDFLVRESQGKQEYVLSVLWDGLPRHFIIQSLDNLYRLEGEGFPSIPLLIDHLLSTQQPLTKKSGVVLHRAVPKDKWVLNHEDLVLGEQIGRGNFGEVFSGRLRADNTLVAVKSCRETLPPDLKAKFLQEARILKQYSHPNIVRLIGVCTQKQPIYIVMELVQGGDFLTFLRTEGARLRVKTLLQMVGDAAAGMEYLESKCCIHRDLAARNCLVTEKNVLKISDFGMSREEADGVYAASGGLRQVPVKWTAPEALNYGRYSSESDVWSFGILLWETFSLGASPYPNLSNQQTREFVEKGGRLPCPELCPDAVFRLMEQCWAYEPGQRPSFSTIYQELQSIRKRHR	not significantly impaired
